Laboratory results taken from US20250027068A1.
Residue numbers refer to the chain shown, from its start.

B1: VRT-40 (Fc fusion)
chain: TITSVWTKGVTPPTPEDFRYYNEDVLHAPYVANQGWYDITKTFDGKDNLLCGAATAGNMLHWWFDQNKEEIERYLKKHPEKQKIIFKNQELFDVKAAIDTKDSQTNSKLFNYFRDKAFPGLSARQLGVFPDLVLDMFINGYYLNLGKTQSTDVNRPYQDKDKRGGIFDAVFTRGVQTTLLTARHDLKNKGLNEISDLIKQELTEGKALALSHTYANVRINHVINLWGADFDAEGNLIAIYVTDSDTRASIGMKKYFVGVNANGKVAISAKKIEGDNIGAQVLGLFTLSTGQDIWQKLSDKTHTCPPCPAPEAAGAPSVFLFPPKPKDTLMISRTPEVTCVVVDVSHEDPEVKFNWYVDGVEVHNAKTKPREEQQNSTYRVVSVLTVLHQDWLNGKEYKCKVSNKALKAPIEKTISKAKGQPREPQVYTLPPSRDELTKNQVSLTCLVKGFYPSDIAVEWESNGQPENNYKTTPPVLDSDGSFFLYSKLTVDKSRWQQGNVFSCSVMHEALHNHYTQKSLSLSPG
B2: VRT-33 (Fc fusion)
chain: SQTEDSESLQRLRDIEDFQAEKKKQNVVYTKWLDGVDVKDHDFRKIVDGNIAYYATPLLNGRGFYDINKDFNRDNDKCAAAVAANMFHYWLDRNRDNVDRFLRQNPEKHGIIELPDGQLKLSDFLNTYESDDGYRDKSKLFDFISNNFNGPVWTDKLLDNYINGYAYNYKYGRTIEDSTKNTSKINFFKEVFNEKILTNNHSIRNQNEFSVLLSEALYTGKAIGLSYGPAGLRHSLGHIISVWGADLDADGNVVAIYVTDSDDKKLTIGDERVGLKRYKISTDDEGRLRLTAYEETHNTGGQIRGLWTLDTGKQAWADYFDKTEQTGTDQAEQDKTHTCPPCPAPEAAGAPSVFLFPPKPKDTLMISRTPEVTCVVVDVSHEDPEVKFNWYVDGVEVHNAKTKPREEQQNSTYRVVSVLTVLHQDWLNGKEYKCKVSNKALKAPIEKTISKAKGQPREPQVYTLPPSRDELTKNQVSLTCLVKGFYPSDIAVEWESNGQPENNYKTTPPVLDSDGSFFLYSKLTVDKSRWQQGNVFSCSVMHEALHNHYTQKSLSLSPG
B3: VRT-34 (Fc fusion)
chain: B2 chain with R93I, D132H
B4: VRT-35 (Fc fusion)
chain: VTSVWTKGVTPPANFTQGEDVFHAPYKANQGWYDITKTFNRKDNLLCGAATAGNMLHWWFDQNKDQIEAYLKEHPEKQKINFKGEQLFDVKEAIDTKDDQTNSKLFEYFKEKAFPYLSTKHLGVFPDHVLDMFINGYRLSLTNHGPTPVKEGSKDKRGGIFDAVFTRGVQSKLLTSRHDFKEKTLKEISDLIKQELTEGKALALSHTYANVRINHVINLWGADFDSNGNLEAIYVTDSDTEASIGMKKYFVGVNKAGKVAISAKEIEDDNIGAQVLGLFTLSTGQDIWNQTNDKTHTCPPCPAPEAAGAPSVFLFPPKPKDTLMISRTPEVTCVVVDVSHEDPEVKFNWYVDGVEVHNAKTKPREEQQNSTYRVVSVLTVLHQDWLNGKEYKCKVSNKALKAPIEKTISKAKGQPREPQVYTLPPSRDELTKNQVSLTCLVKGFYPSDIAVEWESNGQPENNYKTTPPVLDSDGSFFLYSKLTVDKSRWQQGNVFSCSVMHEALHNHYTQKSLSLSPG
B5: VRT-36 (Fc fusion)
chain: B4 chain with K27V, A69R, D99S, N102D, A203G, N227E, E231K, E267K, D268E
B6: VRT-32 (Fc fusion)
chain: QITSVWTKGVTPPTPEQFRYNNEDVFHAPYTAHQGWYDITKTFDGKDNLLCGAATAGNMLHWWFDQNKTEIEAYLSKHPEKQKIIFNNQELFDLKAAIDTKDSQTNSALFNYFRDKAFPGLSARQLGVFPDLVLDMFINGYYLNVFKTQSTDVNRPYQDKDKRGGIFDAVFTRGVQTTLLTARHDLKNKTLNDISTIIKQELTEGRALALSHTYANVRISHVINLWGADFNAEGNLEAIYVTDSDSNASIGMKKYFVGVNASGKVAISAKKIEGENIGAQVLGLFTLSSGKDIWQKLSDKTHTCPPCPAPEAAGAPSVFLFPPKPKDTLMISRTPEVTCVVVDVSHEDPEVKFNWYVDGVEVHNAKTKPREEQQNSTYRVVSVLTVLHQDWLNGKEYKCKVSNKALKAPIEKTISKAKGQPREPQVYTLPPSRDELTKNQVSLTCLVKGFYPSDIAVEWESNGQPENNYKTTPPVLDSDGSFFLYSKLTVDKSRWQQGNVFSCSVMHEALHNHYTQKSLSLSPG
B7: VRT-43 (Fc fusion)
chain: B6 chain with N21Y, N87K, N247R
B8: VRT-39 (Fc fusion)
chain: ITSVWTKGVTPPAKFTQGEDVFHAPYVANQGWYDITKTFNRKDNLLCGAATAGNMLHWWFDQNKEEIEAYLKKHPEKQKIIFGDQELLDVRKVINTKDSQTNSALFNYFKDKAFPNLSARRLGVFPDLVLDMFINGYYLNVYKTQTTDVNRTYQTKDRRGGIFDAVFTRGVQSKLLTERHDFKEKTLKEISDLIKQELTEGKALGLSHTYANVRINHVINLWGADFDSNGNLEAIYVTDSDTRASIGMKKYFVGVNAAGKVAISAKEIKEDNIGAQVLGLFTLSTGQDIWNQTNDKTHTCPPCPAPEAAGAPSVFLFPPKPKDTLMISRTPEVTCVVVDVSHEDPEVKFNWYVDGVEVHNAKTKPREEQQNSTYRVVSVLTVLHQDWLNGKEYKCKVSNKALKAPIEKTISKAKGQPREPQVYTLPPSRDELTKNQVSLTCLVKGFYPSDIAVEWESNGQPENNYKTTPPVLDSDGSFFLYSKLTVDKSRWQQGNVFSCSVMHEALHNHYTQKSLSLSPG
B9: VRT-37 (Fc fusion)
chain: VTSVWTKGVTPPTNFTYGEDVLHAPYVANQGWYDITKTFNRKDNLLCGAATAGNMLHWWFDQNKEQIENYLKKHPEKQKINFKGEQLFDVKEAIDTKDSQLDSKLFEYFKEKAFPYLSTKHLGVFPDHVIDMFINGYRLSLTNHGPTPVKRGSKDKRGGIFDAVFTRGVQSKLLTNRHDFKEKTLKEISDLIKQELTEGKALGISHTYANVRINHVINLWGADFDAEGNLEAIYVTDSDTEASIGMKKYFVGVNKNGKVAISAKEIEEDNIGAQVLGLFTLSTGQDIWNQTNDKTHTCPPCPAPEAAGAPSVFLFPPKPKDTLMISRTPEVTCVVVDVSHEDPEVKFNWYVDGVEVHNAKTKPREEQQNSTYRVVSVLTVLHQDWLNGKEYKCKVSNKALKAPIEKTISKAKGQPREPQVYTLPPSRDELTKNQVSLTCLVKGFYPSDIAVEWESNGQPENNYKTTPPVLDSDGSFFLYSKLTVDKSRWQQGNVFSCSVMHEALHNHYTQKSLSLSPG
B10: VRT-42 (Fc fusion)
chain: QITSVWTKGVTPLTPEQFRYYNEDVIHAPYLANQGWYDITKTFNGKDNLLCGAATAGNMLHWWFDQNKTEIEAYLKKHPEKQKIIFKNQELFDLKAAIDTKDSQTNSQLFNYFRDKAFPGLSARQLGVFPDLVLDMFINGYYLNVFKTQSTDVNRPYQDKDKRGGIFDAVFTRGVQTTLLTARHDLKNKGLNEISTLIKQELTEGKALALSHTYANVRISHVINLWGADFNAEGNLEAIYVTDSDSRASIGMKKYFVGVNAHGKVAISAKKIEGENIGAQVLGLFTLSSGKDIWQKLSDKTHTCPPCPAPEAAGAPSVFLFPPKPKDTLMISRTPEVTCVVVDVSHEDPEVKFNWYVDGVEVHNAKTKPREEQQNSTYRVVSVLTVLHQDWLNGKEYKCKVSNKALKAPIEKTISKAKGQPREPQVYTLPPSRDELTKNQVSLTCLVKGFYPSDIAVEWESNGQPENNYKTTPPVLDSDGSFFLYSKLTVDKSRWQQGNVFSCSVMHEALHNHYTQKSLSLSPG
B11: VRT-38 (Fc fusion)
chain: VTSVWTKGVTPPADFTQGEDVFHAPYVANQGWYDITKTFNRKDNLLCGAATAGNMLHWWFDQNKEYIEAYLKKHPEKQKIIFGDQELLDVRKAINTKGSQKNSELFNYFRDKAFPNLSARRLGVFPDLVLDMFINGYYLNVTKTQTTDVNRTYQEKDKRGGIFDAVFTRGVQSKLLTSRHDFKEKGLKEISDLIKQELTEGKALGLSHTYANVRINHVINLWGADFDSDGNLKAIYVTDSDTRASIGMKKYFVGVNAAGKVAISAKEIKEDNIGAQVLGLFTLSTGQDIWNQTNDKTHTCPPCPAPEAAGAPSVFLFPPKPKDTLMISRTPEVTCVVVDVSHEDPEVKFNWYVDGVEVHNAKTKPREEQQNSTYRVVSVLTVLHQDWLNGKEYKCKVSNKALKAPIEKTISKAKGQPREPQVYTLPPSRDELTKNQVSLTCLVKGFYPSDIAVEWESNGQPENNYKTTPPVLDSDGSFFLYSKLTVDKSRWQQGNVFSCSVMHEALHNHYTQKSLSLSPG

These binders were tested against pooled human IgG (human) (assay: cell-based or functional assay).

Row | Binder | Enzyme Activity Endpoint Assay: Fab′2 [ng/µL] | Enzyme Activity Endpoint Assay: Fc [ng/µL] | Enzyme Activity Endpoint Assay: IgG [ng/µL] | Enzyme Activity Endpoint Assay: scIgG [ng/µL] | Enzyme Activity Endpoint Assay, Fab′2 [ng/µL] | Enzyme Activity Endpoint Assay, Fc [ng/µL] | Enzyme Activity Endpoint Assay, IgG [ng/µL] | Enzyme Activity Endpoint Assay, scIgG [ng/µL]
1 | B1 | 63 | 243 | 167 | 222 | – | – | – | –
2 | B2 | 0 | 5 | 1040 | 21 | – | – | – | –
3 | B3 | 0 | 5 | 1020 | 20 | – | – | – | –
4 | B4 | 0 | 25 | 1020 | 22 | – | – | – | –
5 | B5 | 0 | 112 | 1030 | 62 | – | – | – | –
6 | B6 | 0 | 96 | 803 | 79 | – | – | – | –
7 | B7 | – | – | – | – | 0 | 28 | 1010 | 23
8 | B8 | 0 | 27 | 1020 | 22 | – | – | – | –
9 | B9 | 0 | 101 | 854 | 38 | – | – | – | –
10 | B10 | – | – | – | – | 0 | 28 | 985 | 20
11 | B11 | 0 | 27 | 990 | 20 | – | – | – | –
